T1: IL-31-CEE: purified, recombinant human IL-31 fused at the C-terminal with a peptide consisting of the … (human, UniProt Q6EBC2 24-164)
T1 sequence: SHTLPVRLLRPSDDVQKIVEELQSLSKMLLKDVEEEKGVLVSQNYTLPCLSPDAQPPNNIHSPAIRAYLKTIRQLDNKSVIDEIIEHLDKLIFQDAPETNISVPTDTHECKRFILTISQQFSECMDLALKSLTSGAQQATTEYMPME

T2: mIL31-CEE: purified, recombinant mouse IL-31 (produced in BHK cells) fused at the C-terminus with a peptide … (mouse, UniProt Q6EAL8 31-163)
T2 construct: Biotinylated in the capture ELISA
T2 sequence: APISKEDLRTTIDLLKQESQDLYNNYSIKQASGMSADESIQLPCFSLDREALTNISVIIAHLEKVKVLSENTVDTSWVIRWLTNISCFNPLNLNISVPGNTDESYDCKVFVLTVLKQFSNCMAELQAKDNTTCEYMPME

T3: CEE peptide tag, sequence EYMPME
T3 construct: Tested only as the C-terminal tag of the other species' IL-31-CEE, not as a free peptide; also called CEE tag
T3 peptide: EYMPME


Tests used:
[1] = biological target: T1, IL-31-CEE: purified, recombinant human …; assay: cell-based or functional assay
[2] = biological target: T2, mIL31-CEE: purified, recombinant mouse …; assay: ELISA on plate bound mIL-31-CEE, first round clone supernatant
[3] = biological target: T3, CEE peptide tag, sequence EYMPME; assay: ELISA on plate bound mIL-31-CEE (tag tested as part of that protein)
[4] = biological target: T1, IL-31-CEE: purified, recombinant human …; assay: capture ELISA: mAb of first round clone supernatant captured on anti-mouse IgG Fc, biotinylated IL-31-CEE
Method: These new supernatants were tested using the cell-based neutralization assay (serial 3-fold dilutions starting with neat supernatant and proceeding to a final 1:243 dilution) as well as a “capture” style ELISA assay similar to that used in the development of the rat anti-murine IL-31 mAbs with the following differences; 1) sheep anti-mouse IgG, Fc specific antibody (Jackson Immunoresearch) (1 ug/mL) as plate coating antibody, 2) plates blocked once with PBS-Tween+1% BSA for 1 hr, 3) a single titration of each supernatant added to wells (serial 3-fold dilutions starting with neat supernatant and proceeding to a final 1:2187 dilution), and 4) addition of biotinylated IL-31-CEE (3:1 molar ratio of biotin:protein), 200 ng/mL. This assay was felt to be more pertinent than the binding of antibody to plate bound IL-31-CEE as it assessed the ability of antibody to bind to IL-31-CEE in solution, a property essential to a good antibody for sandwich style ELISAs. It was in fact observed that a number of the master wells supernatants containing antibody that bound well to plate bound IL-31-CEE poorly recognized this molecule in solution.
To reduce the number of hybridomas going into further subcloning, two new assays were performed with exhausted supernatant from each of the selected first round clones. […]

| Binder | IC50 (ng/mL), cell-based neutralization (luciferase), IL-31-CEE at 300 pg/mL [1] [ng/mL] | IC50 (pM), cell-based neutralization (luciferase), IL-31-CEE at 300 pg/mL [1] [pM] | binding result [2] | binding result [3] | EC50 [4] [ng/mL] |
| --- | --- | --- | --- | --- | --- |
| mouse anti-human IL-31 mAb from clone 292.105.4.1 (antibody, mouse IgG1, V domains shown, Mouse IgG1; assays used first round clone 292.105.4) VH: EVQLVESGGDLVKPGGSLKLSCAASGFTFSTYIMSWVRQSPEKRLEWVATINSGGYYTLYPDSVKGRFTISRDNAKNTLSLQLSSLRSEDTAMYFCARQEGWSSAWFAYWGQGTLVTVSA VL: not shown | 9.14 | 61 | no binding | no binding | – |
| mouse anti-human IL-31 mAb from clone 292.39.5.3 (antibody, mouse IgG1, V domains shown, Mouse IgG1; assays used first round clone 292.39.5) VH: EVQLVESGGDLVKPGGSLKLSCAASGFTFSTYIMSWVRQSPEKRLEWVATINSGGYYTLYPDSVKGRFTISRDNVKNTLSLQLSSLRSEDTAMYFCARQEGWSSAWFAYWGQGTLVTVSA VL: not shown | 8.63 | 57.5 | no binding | no binding | – |
| mouse anti-human IL-31 mAb from clone 292.64.6.5.5 (antibody, mouse IgG1, V domains shown, Mouse IgG1; assays used first round clone 292.64.6) VH: EVQLVESGGDLVKPGGSLKLSCAASGFTFSTYIMSWVRQSPEKRLEWVATINSGGYYTLYPDSVKGRFTISRDNAKNTLSLQLSSLRSEDTAMYFCARQEGWSSAWFAYWGQGTLVTVSA VL: DIVMTQSPSSLAMSVGQKVTMICNSSQSLLNSSNQKNYLAWYQQKPGQSPRLLIYFASTGESGVPDRFIGSGSGTDFTLTISNVQAEDLADYFCQQHFSTPYTFGGGTKLEIR | 10.1 | 67 | no binding | no binding | 3.4 |
| mouse anti-human IL-31 mAb from clone 292.12.3.1 (ATCC Patent Deposit Designation PTA-6815) (antibody, mouse IgG1, V domains shown, Mouse IgG1, kappa; assays used supernatant of first round clone 292.12.3) VH: QVQLQQSGAELARPGASVNLSCKASGYTLTRYWMQWVKQRPGQGLEWIGAIYPGDGDTRYSQKFKGKATLTADKSSSTAYMQLNNLASEDSAVYYCAFPDGYYAAPYGMDYWGQGTSVTVSS VL: DIQMTQSPASLSASVGETVTITCRASGNIHNYLAWYQQKQGKSPQLLVYNAKTLADGVPSRFSGSRSETQYSLKINSLQPEDFGSYYCQHFWSTPWTFGGGTKLEIK | 1.2 | 7.98 | no binding | no binding | – |
| mouse anti-human IL-31 mAb from clone 292.72.3.1 (ATCC Patent Deposit Designation PTA-6816) (antibody, mouse IgG2a, V domains shown, Mouse IgG2a; assays used first round clone 292.72.3) VH: QVQVQQSGAELARPGASVKLSCKASGYTLTRYWMQWVKQRPGQGLEWIGAIYPRDGDTRYSQKFKGKATLTADKSSTTAYMQLSSLASEDSAVYYCAYPDGSYAAPNGMEYWGQGSSVTVSS VL: DIQMSQSPASLSASVGETVTITCRASGSIHNYLAWYQQKQGKSPQLLVYNAETLADGVPSRFSGSGSGTQYSLKISSLQPEDFGTYYCQHFWITPWTFGGGTKLEIK | 2 | 13.3 | no binding | no binding | – |
| mouse anti-human IL-31 mAb from clone 292.51.5.2 (antibody, mouse IgG1, V domains shown, Mouse IgG1; assays used first round clone 292.51.5) VH: EVQLVESGGDLVKPGGSLKLSCAASGFTFSSFVMSWVRQSPEKRLEWVATINSGGYYSFHPDSVKGRFTISRDNAKNTLYLQMSSLRSEDTAIYYCARQEGWSSAYFSYWGQGTLVTVSA VL: DIVMTQSPSSLAMSVGQKVTMICKSSQSLLNSSNQKNYLAWYQQKPGHSPKLLVSFTSTRESGVPDRFIGSGSGTDFTLTITNMQAEDLADYFCQQHYDTPYTFGGGTKLEIR | 6.48 | 43.2 | no binding | no binding | – |

Continued, values first:

| IC50 (ng/mL), cell-based neutralization (luciferase), IL-31-CEE at 300 pg/mL [1] [ng/mL] | IC50 (pM), cell-based neutralization (luciferase), IL-31-CEE at 300 pg/mL [1] [pM] | binding result [2] | binding result [3] | EC50 [4] [ng/mL] | Binder |
| --- | --- | --- | --- | --- | --- |
| 8.29 | 55.2 | no binding | no binding | – | mouse anti-human IL-31 mAb from clone 292.109.4.4 (antibody, mouse IgG1, V domains shown, Mouse IgG1; assays used first round clone 292.109.4) VH: EVQLVESGGDLVKPGGSLKLSCAASGFTFSTYIMSWVRQSPEKRLEWVATINSGGYYTLYPDSVKGRFTISRDNAKNTLSLQLSSLRSEDTAMYFCARQEGWSSAWFAYWGQGTLVTVSA VL: not shown |
| 6.55 | 43.7 | no binding | no binding | – | mouse anti-human IL-31 mAb from clone 292.118.6.4 (ATCC Patent Deposit Designation PTA-6830) (antibody, mouse IgG1, V domains shown, Mouse IgG1; assays used first round clone 292.118.6) VH: EVQLVESGGGLVKPGGSLKLSCAVSGFTFKTYIMSWVRQSPEKRLEWVATINSGGYYTIYPDSVKGRFTISRDNAKNTLYLQMSSLRSEDTAMYYCARQEGWSSAWFAYWGQGTLVTVSA VL: DIVMTQSPSSLAMSVGQKVTMICNSSQSLLNSSNQKNYLAWYQQRPGQSPRLLVYFASTGESGVPDRFMGSGSGTDFTLTISNVQAEDLADYFCQQHFSTPYTFGGGTKLEIR |
| – | – | no binding | no binding | 13.4 | mouse anti-human IL-31 mAb from clone 294.144.3.5 (ATCC Patent Deposit Designation PTA-6873) (antibody, mouse IgG1, V domains shown, Mouse IgG1) VH: QVQLQQSGPELMKPGASVKISCKATGYTFSTYWIEWIKQRPGHGLEWIGEILPGRGTTNYNAKFQGKATFTAETSSNTAYMQLSSLTSEDSAVYYCTTESKLGDDDYWQGTTLTVSS VL: ENVLTQSPAIMSASPGERVTMTCSASSSVSYMHWYQQKSSNSPKLWIYDTTKLASGVPGRFSGSGSGNSYSLTISSMEAEDVATYFCFQGSEHPLTFGGGTTLEI |
| 1.08 | 7.18 | no binding | no binding | – | mouse anti-human IL-31 mAb from clone 292.84.1.6 (ATCC Patent Deposit Designation PTA-6871) (antibody, V domains shown, Mouse IgG2a, kappa; Assays used first round clone 292.84.1) VH: QVQLQQSGAELARPGASVNLSCKASGYTLTRYWMQWVKQRPGQGLEWIGTIYPGDGDTRYSQKFKGKASLTADKSSNTAYMQLNNLASEDSAVYFCAFPDGYYAAPYGMDYWGQGTSVTVSS VL: DIQMTQSPASLSASVGETVTITCRASGNIHNYLAWYQQKQGRSPQLLVYNAKTLADGVPSRFSGSRSETQYSLKINSLQPEDFGSYYCQHFWSTPWTFGGGTKLEIK |

— US20090252732A1 (published 2009)
